This is an account of results in article PMC6873191.

The target in one assay is full-length ClpC fused to the T25 fragment of B. pertussis adenylate cyclase (B. subtilis) (UniProt P37571). Nature of the assay: two-hybrid; modified bacterial two-hybrid: MecA-T18 and ClpC-T25 in E. coli DHM1 that holds a plasmid with Gp53 under the L-arabinose-inducible araB promoter; β-gal activity with and without L-arabinose.
Details: not given
On to “Gp53 expressed from pSCBAD-Gp53 under the L-arabinose-inducible araB promoter (natural protein)”, for which the fold reduction of the β-gal activity of MecA-ClpC on induction of Gp53 is 3 fold.

The next assay deals with full-length ClpC fused to the T25 fragment of B. pertussis adenylate cyclase (UniProt P37571). The experiment in a line: bacterial two-hybrid interaction assay (β-gal readout). Particulars: E. coli Δcya strain DHM1; Gp53 fused to T18, ClpC fused to T25; n = 3; parent: 100.
Take “Gp53 (WT) fused to a fragment of B. pertussis adenylate cyclase for the bacterial two-hybrid assay L95A”: the percent of parent is 48%. With “Gp53 (WT) fused to a fragment of B. pertussis adenylate cyclase for the bacterial two-hybrid assay R94E”, the percent of parent came out at 37%. For the substance “Gp53 (WT) fused to a fragment of B. pertussis adenylate cyclase for the bacterial two-hybrid assay V87A”, the percent of parent came to 44%.

The same assay, now with this note: E. coli Δcya strain DHM1; Gp53 fused to T18, ClpC fused to T25; n = 3; parent: est. 21000; read off a plot.
Consider “Gp53 (WT) fused to a fragment of B. pertussis adenylate cyclase for the bacterial two-hybrid assay K101A”, for which the response amounted to 22000 Miller Units. Take “Gp53 (WT) fused to a fragment of B. pertussis adenylate cyclase for the bacterial two-hybrid assay K101E”: the response stood at 23000 Miller Units. As for “Gp53 (WT) fused to a fragment of B. pertussis adenylate cyclase for the bacterial two-hybrid assay L83A”, the response was found to be 20000 Miller Units. The same measure, in the same setting: the figure for “Gp53 (WT) fused to a fragment of B. pertussis adenylate cyclase for the bacterial two-hybrid assay L95A” is 10000 Miller Units.

Turning to “Gp53 (WT) fused to a fragment of B. pertussis adenylate cyclase for the bacterial two-hybrid assay R94A”, the response came out at 21000 Miller Units. Turning to “Gp53 (WT) fused to a fragment of B. pertussis adenylate cyclase for the bacterial two-hybrid assay R94E”, the response amounted to 7700 Miller Units. On the same count and under the same terms, the figure for “Gp53 (WT) fused to a fragment of B. pertussis adenylate cyclase for the bacterial two-hybrid assay V87A” is 9300 Miller Units.

For the next assay, the target named is C-terminal FLAG-tagged ClpC (B. subtilis) (UniProt P37571).
Experiment: not given
Details: not given
Consider “N-terminal His6-tagged Gp53 of phage SPO1 (natural protein)”, for which the β-casein (3 μM) left intact after 90 min of in vitro degradation by ClpCP with MecA, with Gp53 against without Gp53 stood at 10 fold.
